One molecule from patent publication US20080081903A1, “METHOD FOR SCREENING TRANSCRIPTIONAL COREGULATORY PROTEINS OF TRANSCRIPTION FACTORS, AND ANDROGEN RECEPTOR TRANSCRIPTIONAL COREGULATORY PROTEINS AS TARGETS FOR ANDROGEN RECEPTOR-DEPENDENT DISEASES” (NEW YORK UNIVERSITY, priority 2001, published 2008) can be followed below.

In this experiment the target is T1, androgen receptor transcriptional activation (Homo sapiens, UniProt P10275).
T1 construct: The pcDNA3:hAR expression plasmid was used to produce full length human AR; expressed in transfected cells; host or cells: HeLa and PC-3 (both AR deficient)
T1 sequence (P10275 1-920): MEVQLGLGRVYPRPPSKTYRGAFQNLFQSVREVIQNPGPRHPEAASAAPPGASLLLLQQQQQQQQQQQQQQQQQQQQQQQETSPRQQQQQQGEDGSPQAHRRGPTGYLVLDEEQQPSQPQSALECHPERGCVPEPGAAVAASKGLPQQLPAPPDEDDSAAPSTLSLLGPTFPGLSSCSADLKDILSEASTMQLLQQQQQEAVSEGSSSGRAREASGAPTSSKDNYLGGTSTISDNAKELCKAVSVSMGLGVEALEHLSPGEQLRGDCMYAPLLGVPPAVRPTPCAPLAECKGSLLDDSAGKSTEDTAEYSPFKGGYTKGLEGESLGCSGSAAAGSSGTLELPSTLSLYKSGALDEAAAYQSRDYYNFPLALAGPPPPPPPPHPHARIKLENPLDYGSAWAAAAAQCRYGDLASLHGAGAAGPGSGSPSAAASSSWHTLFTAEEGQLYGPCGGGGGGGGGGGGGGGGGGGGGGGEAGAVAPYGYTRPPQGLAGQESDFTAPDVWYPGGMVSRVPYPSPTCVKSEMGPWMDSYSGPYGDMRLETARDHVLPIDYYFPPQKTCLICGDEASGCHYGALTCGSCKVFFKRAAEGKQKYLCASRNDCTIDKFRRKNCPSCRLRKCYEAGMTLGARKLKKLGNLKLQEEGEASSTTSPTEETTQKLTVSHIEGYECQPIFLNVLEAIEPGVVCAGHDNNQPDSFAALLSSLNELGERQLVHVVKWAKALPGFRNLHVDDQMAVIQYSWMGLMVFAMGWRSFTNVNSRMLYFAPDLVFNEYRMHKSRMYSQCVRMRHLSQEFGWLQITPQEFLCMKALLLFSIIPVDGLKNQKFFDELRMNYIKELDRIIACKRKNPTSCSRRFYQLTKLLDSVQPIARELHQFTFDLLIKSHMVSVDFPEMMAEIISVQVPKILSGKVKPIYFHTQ
In words: Transient transfection, AR-responsive luciferase reporter assay. It counts as cell-based. Conditions: overexpressed in cultured mammalian cells. An excerpt:
The two ART-27 derivatives used in the mammalian cell culture experiments were constructed as follows: using EcoRI-XhoI, ART-27 was subcloned from pEG202:ART-27 into a pcDNA3 vector that has an N-terminal HA epitope (pCDNA3-HA) in the same reading frame as the LexA moiety in pEG202 with respect to the EcoRI site; ART-271-127 was subcloned from pEG202:ART-271-127 into pcDNA3-HA, pJG4-5:Sp183-262, pJG4-5:Sp1263-542, pJG4-5:TAF130270-700, and pJG4-5:CREB3-296 were provided by N. Tanese (New York University School of Medicine, New York). pJG4-5:SRC-1374-800 was provided by H. Samuels (New York University School of Medicine, New York). pJG4-5:GR107-237 was previously described (Hittelman et al., 1999). The pJK103 reporter plasmid, which contains a single LexA operator linked to β-galactosidase, was used in all activity assays of the LexA fusion proteins and in the modified two-hybrid assay. The pΔ4X-LALO-luciferase reporter plasmid, which contains four LexA operators upstream of a minimal Drosophila alcohol dehydrogenase promoter linked to luciferase, was used in mammalian activity assays to monitor the intrinsic transcriptional activity of the LexA fusion proteins. […]
Background: In a reporter assay the amount or activity of a reporter protein is the signal.

B1: ART-5: Androgen Receptor Trapped protein, SEQ ID NO:4, unknown function, represented in EST database (protein)
chain: MHNPDGSASPTADPGSELQTLGQAARRPPPPRAGHDAPRRTRPSARKPLSCFSRRPMPTREPPKTRGSRGHLHTHPPGPGPPLQGLAPRGLKTSAPRPPCQPQPGPHKAKTKKIVFEDELLSQALLGAKKPIGAIPKGHKPRPHPVPDYELKYPPVSSERERSRYVAVFQDQYGEFLELQHEVGCAQAKLRQLEALLSSLPPPQSQKEAQVAARVWREFEMKRMDPGFLDKQARCHYLKGKLRHLKTQIQKFDDQGDSEGSVYF
modifications: Human
B1: the androgen receptor-dependent transactivation result is on record as “increase”.
